In patent US20250352581A1 (NEOMICS PHARMACEUTIALS, published 2025):

Molecular target: PD-L1 expressed on target cells (K562-PDL1, A375-PDL1, A549-HLA-A2/PDL1) (UniProt Q9NZQ7 19-290, limits assumed)
Assay: cell-based or functional assay

Sequence of PD-L1 expressed on target cells (K562-PDL1, A375-PDL1, A549-HLA-A2/PDL1) (Q9NZQ7 19-290 limits assumed): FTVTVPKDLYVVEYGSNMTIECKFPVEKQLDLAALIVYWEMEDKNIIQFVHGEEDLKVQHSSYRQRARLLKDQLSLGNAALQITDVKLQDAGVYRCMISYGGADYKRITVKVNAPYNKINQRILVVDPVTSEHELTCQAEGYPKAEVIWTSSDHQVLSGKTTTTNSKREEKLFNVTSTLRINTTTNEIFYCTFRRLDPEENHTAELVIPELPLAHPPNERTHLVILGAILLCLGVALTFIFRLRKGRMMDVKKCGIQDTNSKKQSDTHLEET

T cell expansion (GSK-794 and 2007 TCR T cells on A375-PDL1 cells): ≥ 60 fold
B1: PD1-28-TNR9(41BBt) PD-1 chimeric co-stimulatory receptor (PD-1 extracellular domain_CD28 stalk, transmembrane and signaling domain_truncated 4-1BB signaling … (receptor)
chain: FLDSPDRPWNPPTFSPALLVVTEGDNATFTCSFSNTSESFVLNWYRMSPSNQTDKLAAFPEDRSQPGQDCRFRVTQLPNGRDFHMSVVRARRNDSGTYLCGAISLAPKAQIKESLRAELRVTERRAEVPTAHPSPSPRPALFPGPSKPFWVLVVVGGVLACYSLLVTVAFIIFWVRSKRSRLLHSDYMNMTPRRPGPTRKHYQPYAPPRDFAAYRSQPFMRPVQTTQEEDGCSCRFPEEEEGGCEL
